Assay results taken from patent US20240279345A1, “ALPHA 5 BETA 1 INTEGRIN BINDING AGENTS AND USES THEREOF” (PASITHEA THERAPEUTICS CORP., priority 2021, published 2024).
Where a chain is given by its changes, count along the chain named. Names and notes keep the numbering of the source.

Assays:
U87MG cell line = experiment: Plate-based cell adhesion assay of U87MG cells to FN; conditions: antibody 3 to 0.01 μg/mL
Experimental: Cell surface α5β1 integrin receptors interact with FN to promote cellular adhesion. To test whether the human IgG4 chimeric anti-α5β1 antibodies inhibit adhesion, a plate-based cell adhesion assay was developed for use with the U87MG cell line (HTB-14™, ATCC, Manassas, VA) which is derived from a Glioblastoma tumor and is known to express α5β1 integrin. U87MG cells were grown to 80% confluence in EMEM media (ATCC, Manassas, VA, cat. no. 30-2003) supplemented with 10% Fetal Bovine Serum (FBS; ATCC, Manassas, VA, cat. no. 30-2021) in a 5% C02, 37° C. incubator. Cells were dissociated from flasks with 0.05% Trypsin, 0.02% EDTA (Lifeline Cell Technology, Frederick, MD, cat. no. CM0017), washed once with Dulbecco's 1×PBS (DPBS) Modified which contains calcium and magnesium (HyClone, Logan, UT, cat. no. SH30028-02) and resuspended in EMEM media without supplementation at a cellular concentration of 2,000,000 cells per mL. Cells were rested in the incubator for 30 minutes before mixing with a six point 1:3 dilution series of the antibodies with final concentrations ranging from 3 to 0.01 μg/mL in a 96-well polypropylene round-bottom plate. 100,000 rested cells were pre-mixed with each dilution of antibody to a final volume of 100 μL and then transferred to a Human FN coated 96-well plate (R&D Systems, Minneapolis, MN, cat. no. CWP001). The cell-antibody mixtures were incubated for 1 hour at 37° C., 5% C02. Non-adhered cells were removed from the wells by inversion of the plate on an absorbent pad, then washed 2× with 200 uL each well with 1×DPBS without Calcium and Magnesium (EMD Millipore Corp, Billerica, MA, cat. no. TMS-012-A). 100 μL 1× DPBS containing Hoechst 33342 dye (Thermo Fisher Scientific, Waltham, MA, cat. no. 62249) at the recommended dilution (1:2000) was added to each well to fluorescently stain nuclei to facilitate cell counting. Cells that remained adhered to the wells were counted using image analysis software provided by the ImageXpress Pico Automated Cell Imaging System (Molecular Devices, San Jose, CA) which is based on counting fluorescently stained nuclei, in this case using a DAPI filter to detect the Hoechst nuclear staining. Non-linear regression analysis was used to fit curves (4-parameter) to the data using GraphPad Prism version 9.0.2 (GraphPad Software, LLC, San Diego, CA).

[1] = target: α5β1 integrin on U87MG cells (human, UniProt P08648 42-1049; P05556 21-798); experiment: cell-based or functional assay
Sequence of α5β1 integrin on U87MG cells (P08648 42-1049 limits assumed, chain 1 of 2): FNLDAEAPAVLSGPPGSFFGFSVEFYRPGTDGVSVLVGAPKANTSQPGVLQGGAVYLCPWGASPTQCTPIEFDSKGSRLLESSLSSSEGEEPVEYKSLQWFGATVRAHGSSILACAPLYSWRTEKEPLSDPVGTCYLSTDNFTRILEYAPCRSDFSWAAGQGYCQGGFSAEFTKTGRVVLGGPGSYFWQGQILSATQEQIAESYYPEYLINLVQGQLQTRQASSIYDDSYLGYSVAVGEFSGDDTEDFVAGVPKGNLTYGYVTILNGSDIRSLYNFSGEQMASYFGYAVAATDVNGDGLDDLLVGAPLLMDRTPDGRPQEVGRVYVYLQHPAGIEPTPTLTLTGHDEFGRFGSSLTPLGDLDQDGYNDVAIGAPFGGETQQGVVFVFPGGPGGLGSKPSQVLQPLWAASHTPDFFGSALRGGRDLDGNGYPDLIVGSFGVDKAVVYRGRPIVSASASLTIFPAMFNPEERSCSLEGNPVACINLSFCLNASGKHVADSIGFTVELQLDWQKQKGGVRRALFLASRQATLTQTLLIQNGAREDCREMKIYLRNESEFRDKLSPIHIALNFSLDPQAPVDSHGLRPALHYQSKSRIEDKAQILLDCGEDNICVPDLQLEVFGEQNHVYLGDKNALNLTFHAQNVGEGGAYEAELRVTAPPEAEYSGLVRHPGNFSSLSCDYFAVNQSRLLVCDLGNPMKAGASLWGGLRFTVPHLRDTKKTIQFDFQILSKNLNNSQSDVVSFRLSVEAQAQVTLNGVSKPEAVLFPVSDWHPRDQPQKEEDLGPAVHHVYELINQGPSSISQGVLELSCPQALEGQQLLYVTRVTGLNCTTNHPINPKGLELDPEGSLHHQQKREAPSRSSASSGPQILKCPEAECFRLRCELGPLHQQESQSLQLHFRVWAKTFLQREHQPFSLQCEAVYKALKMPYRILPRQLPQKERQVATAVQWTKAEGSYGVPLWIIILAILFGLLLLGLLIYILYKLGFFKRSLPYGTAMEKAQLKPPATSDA
Sequence of α5β1 integrin on U87MG cells (P05556 21-798 limits assumed, chain 2 of 2): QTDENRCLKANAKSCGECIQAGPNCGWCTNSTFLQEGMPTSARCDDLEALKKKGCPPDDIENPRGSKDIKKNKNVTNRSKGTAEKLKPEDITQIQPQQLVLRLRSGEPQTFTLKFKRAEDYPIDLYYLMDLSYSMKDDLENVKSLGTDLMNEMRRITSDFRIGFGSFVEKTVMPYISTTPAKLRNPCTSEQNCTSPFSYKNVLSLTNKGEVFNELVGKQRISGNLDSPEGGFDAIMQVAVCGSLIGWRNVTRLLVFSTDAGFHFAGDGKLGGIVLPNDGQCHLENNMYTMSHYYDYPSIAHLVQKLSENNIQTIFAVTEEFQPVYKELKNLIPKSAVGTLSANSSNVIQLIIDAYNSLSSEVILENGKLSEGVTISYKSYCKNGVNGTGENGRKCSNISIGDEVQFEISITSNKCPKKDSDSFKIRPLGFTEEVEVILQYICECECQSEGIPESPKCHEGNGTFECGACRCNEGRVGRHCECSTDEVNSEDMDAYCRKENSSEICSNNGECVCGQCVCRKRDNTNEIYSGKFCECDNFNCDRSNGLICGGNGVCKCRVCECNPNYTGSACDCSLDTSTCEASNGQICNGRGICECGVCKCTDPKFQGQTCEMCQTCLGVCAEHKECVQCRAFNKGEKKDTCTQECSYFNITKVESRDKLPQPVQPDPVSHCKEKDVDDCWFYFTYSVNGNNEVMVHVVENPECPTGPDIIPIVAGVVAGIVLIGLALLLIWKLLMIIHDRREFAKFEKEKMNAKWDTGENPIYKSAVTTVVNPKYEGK

B1: A-15B08-T62A IgG4 Chimera (antibody, V domains shown)
VH: QVQLKESGPGLVAPSQSLSITCTISGFSLTSYGVHWVRQPPGKGLEWLVVIWSDGSTTYNSALKSRLSISKDNSKSQVFFKMNSLQTDDTAMYYCARHYDYDGDWFAYWGQGTLVTVSA
VL: QIVLTQSPAIMSASLGERVTMTCTASSRVSSNSLHWYQQKPGSSPKLWIYSTSNLASGVPARFSGSGSGTSYSLTISSMEAEDAATYYCHQYLRSPPTFGGGTKLEIK
- IC50 (U87MG cell line): 0.15 µg/mL
- % Inhibition [1]: 82%
- Cell Counts (Curve Bottom) [1]: 6320 cells
- Cell Counts (Curve Top) [1]: 35400 cells

B2: A-15B08 IgG4 Chimera (antibody, V domains shown)
VH: B1 VH with A62T
VL: B1 VL
- IC50 (U87MG cell line): 0.12 µg/mL

B3: C-14D12 IgG4 Chimera (antibody, V domains shown)
VH: QVQLKESGPDLVAPSQSLSITCTVSGFSLTDYGVHWVRQPPGKGLEWLVVIWSDGSTTYNSALKSRLSITKDTSKRQVFLKMNSLQTDDTAMYYCARHAPSFIRYGSRYDALDYWGQGTSVTVSS
VL: B1 VL with M21L, R28S, S30T, N32S, S33F, L93H
- IC50 (U87MG cell line): 0.14 µg/mL

B4: A2-7A05 IgG4 Chimera (antibody, V domains shown)
VH: QVQLQQPGAELVKPGASVKLSCKASGYTFTIYWINWVKQRPGQGLEWIGKIYPGSISTDYNEKFKSKATLTVDTSSSTAYMQLSSLTSDDSAVYYCAITGTGGLAYWGQGTLVTVSA
VL: ENVLTQSPAIMSASLGEKVTMTCRASSSVNYMYWYQQKSDASPKLWIYFTSSLAPGVPGRFSGSGSGNSYSLTISTMEGEDAATYYCQQFTTSPFTFGSGTKLEIK
- IC50 (U87MG cell line): 0.27 µg/mL
- % Inhibition [1]: 25%
- Cell Counts (Curve Bottom) [1]: 28800 cells
- Cell Counts (Curve Top) [1]: 38200 cells
